B1: Biotinylated human Norrin wild-type (pHL-Avitag3 construct) [modified: biotin on the C-terminal BirA recognition sequence (in vivo biotinylation); biotin on the C-terminal BirA recognition sequence (in vivo biotinylation)] (parent)
chain 1: KTDSSFIMDSDPRRCMRHHYVDSISHPLYKCSSKMVLLARCEGHCSQASRSEPLVSFSTVLKQPFRSSCHCCRPQTSKLKALRLRCSGGMRLTATYRYILSCHCEECNS
chain 2: ERRCDPIRISMCQNLGYNVTKMPNLVGHELQTDAELQLTTFTPLIQYGCSSQLQFFLCSVYVPMCTEKINIPIGPCGGMCLSVKRRCEPVLKEFGFAWPESLNCSKFPPQNDHNHMCMEGPGDEEVPLPHKTPIQPGE

Variants of: B1
Assay: SPR
Details: with Frizzled4 cysteine-rich domain (Fz4CRD), Norrin mutant immobilized on CM5 chip, Fz4CRD as analyte, 1:1 Langmuir binding model

screen value (Surface: 325 RU (WT surface in panel A: 336 RU)) [RU] | Kd (Surface: 325 RU) [nM] | screen value (Surface: 435 RU (WT surface in panel A: 336 RU)) [RU] | Kd (Surface: 435 RU) [nM] | Variant
122 | 1250 | – | – | chain 1 L28N K30S
– | – | 78 | 1060 | chain 1 M90N L92S

— PMC4497409
